Values of other authors, collected in patent EP1600162A1, “Shelf-stable formulation of glucagon-like peptide-1” (Eli Lilly & Company, priority 1998, dated 2005).

Conditions: stored at 4° C

## GLP-1(7-37): GLP-1 molecule affected by dipeptidyl-peptidase IV; background peptide
  time after sample preparation at which by-products have been found: eleven
